We go through one molecule from patent CN112279916A (DINGFU BIOTARGET CO LTD, dated 2021).

For this test, the target named is T1, hIL13RA1-EGFP (细胞表面hIL13RA1, HEK293细胞) (human, UniProt P78552 22-427).
T1 construct: also called 人IL13RA1; not shown: enhanced green fluorescent protein EGFP, UniProt C5MKY7
T1 sequence (looked up): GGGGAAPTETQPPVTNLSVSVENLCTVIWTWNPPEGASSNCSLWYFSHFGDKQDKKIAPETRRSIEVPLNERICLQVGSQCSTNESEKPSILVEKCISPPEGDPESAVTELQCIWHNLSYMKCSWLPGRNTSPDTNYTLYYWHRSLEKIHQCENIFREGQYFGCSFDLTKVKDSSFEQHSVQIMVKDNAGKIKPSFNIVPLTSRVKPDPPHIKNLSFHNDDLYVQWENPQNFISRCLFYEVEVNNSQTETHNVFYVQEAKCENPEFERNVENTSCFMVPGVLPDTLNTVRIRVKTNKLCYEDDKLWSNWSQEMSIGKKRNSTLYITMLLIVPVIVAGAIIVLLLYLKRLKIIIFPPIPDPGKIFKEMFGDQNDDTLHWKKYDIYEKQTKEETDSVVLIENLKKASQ
In words: FACS on hIL13RA1-EGFP HEK293 cells, 2 μg antibody, secondary antibody anti-hIg-PE.

B1: anti-hIL13RA1 scFv抗体 (Fc fusion)
scFv: QVQLQQSGPGLVKPSQTLLITCAISGDSVSSNSAAWNWIRQSPSGSLEWLGRTYYRSKWYSHYAVSVTGRMTINSDSSKNQFSLQLDSVTPEDMAIYYCAREEVAGRGSFDFWGQGTLVTVSSGILGSGGGGSGGGGSGGGGSDIQLTQSPSFLSASVGDRVTITCRASQSISKNLVWYQQKPGKAPKLLIYSASTLQSGVPSRFSGSGSGTDFTLTISSLQPEDCALYFCQQAHSFPVTFGQGTRLEIK
notes: also called anti-IL13RA1 35#; IL13RA1抗体; not shown: human IgG1-Fc domain, UniProt P01857 residues 104-330
As for B1, the binding result is given as “binds”.
